This is an account of results in paper PMC9637899.

This experiment concerns the target T1, ElpQ_(181–343).
T1 chain: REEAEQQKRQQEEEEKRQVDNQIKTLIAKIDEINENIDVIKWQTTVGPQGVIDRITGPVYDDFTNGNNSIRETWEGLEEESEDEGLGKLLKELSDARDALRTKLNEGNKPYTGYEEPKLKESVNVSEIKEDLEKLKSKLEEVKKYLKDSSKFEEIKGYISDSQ
The experiment is described as follows: SPR. As to conditions: chain shown with the change; steady-state response at the highest analyte concentration plotted (about 5e-7 M on the x axis); ElpQ181-343 immobilized, C1s construct injected; parent: est. 140; read off a plot.

B1: activated C1s–CCP1–CCP2–SP, P09871 E326A; D358A; K575A; R576A; R581A; K583A (protein)
chain: EPTMYGEILSPNYPQAYPSEVEKSWDIEVPEGYGIHLYFTHLDIELSENCAYDSVQIISGDTEEGRLCGQRSSNNPHSPIVEEFQVPYNKLQVIFKSDFSNEERFTGFAAYYVATDINECTDFVDVPCSHFCNNFIGGYFCSCPPEYFLHDDMKNCGVNCSGDVFTALIGEIASPNYPKPYPENSRCEYQIRLEKGFQVVVTLRREDFDVEAADSAGNCLDSLVFVAGDRQFGPYCGHGFPGPLNIETKSNALDIIFQTDLTGQKKGWKLRYHGDPMPCPKEDTPNSVWEPAKAKYVFRDVVQITCLDGFAVVEGRVGATSFYSTCQSNGKWSNSKLKCQPVACGIPESIENGKVEDPESTLFGSVIRYTCEEPYYYMENGGGGEYHCAGNGSWVNEVLGPELPKCVPVCGVPREPFEEKQRIIGGSDADIKNFPWQVFFDNPWAGGALINEYWVLTAAHVVEGNREPTMYVGSTSVQTSRLAKSKMLTPEHVFIHPGWKLLEVPEGRTNFDNDIALVRLKDPVKMGPTVSPICLPGTSSDYNLMDGDLGLISGWGRTEAADRAVALAAARLPVAPLRKCKEVKVEKPTADAEAYVFTPNMICAGGEKGMDSCKGDSGGAFAVQDPNDKTKFYAAGLVSWGPQCGTYGLYTRVKNYVDWIMKTMQENSTPRED
Regarding B1, the response was 0 RU.

B2: activated C1s–CCP1–CCP2–SP, P09871 K575A; R576A; R581A; K583A (protein)
chain: EPTMYGEILSPNYPQAYPSEVEKSWDIEVPEGYGIHLYFTHLDIELSENCAYDSVQIISGDTEEGRLCGQRSSNNPHSPIVEEFQVPYNKLQVIFKSDFSNEERFTGFAAYYVATDINECTDFVDVPCSHFCNNFIGGYFCSCPPEYFLHDDMKNCGVNCSGDVFTALIGEIASPNYPKPYPENSRCEYQIRLEKGFQVVVTLRREDFDVEAADSAGNCLDSLVFVAGDRQFGPYCGHGFPGPLNIETKSNALDIIFQTDLTGQKKGWKLRYHGDPMPCPKEDTPNSVWEPAKAKYVFRDVVQITCLDGFEVVEGRVGATSFYSTCQSNGKWSNSKLKCQPVDCGIPESIENGKVEDPESTLFGSVIRYTCEEPYYYMENGGGGEYHCAGNGSWVNEVLGPELPKCVPVCGVPREPFEEKQRIIGGSDADIKNFPWQVFFDNPWAGGALINEYWVLTAAHVVEGNREPTMYVGSTSVQTSRLAKSKMLTPEHVFIHPGWKLLEVPEGRTNFDNDIALVRLKDPVKMGPTVSPICLPGTSSDYNLMDGDLGLISGWGRTEAADRAVALAAARLPVAPLRKCKEVKVEKPTADAEAYVFTPNMICAGGEKGMDSCKGDSGGAFAVQDPNDKTKFYAAGLVSWGPQCGTYGLYTRVKNYVDWIMKTMQENSTPRED
As to B2, the response came to 8 RU.
